Laboratory results reported in paper PMC13189263.

Key:
[1] = molecular target: N6-I2 Ab (human); test: SPR
[2] = molecular target: N6-I3 Ab (human); test: SPR

Substance: BG505 MD39.3 SOSIP trimer
- Kd [1]: 5.7 nM
- Kd [2]: 3 nM
